# Laboratory results from the supplement of paper PMC9732359.
# ± gives the uncertainty stated by the source.
# Assay: protein stability index of a GFP-peptide fusion (yeast GPS) (PSI 1-4); higher = more stable; sorted into four equal gates, so the index is relative within each strain
# Summary of the method: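 For each peptide, the protein stability index sums the read frequency in every gate after multiplying it by the gate number. Read frequencies came from plasmids that were PCR-amplified from each gate and Illumina-sequenced, with reads assigned to strains by barcodes. The gates were four equal bins of GFP/Cherry fluorescence ratio applied to mid-log yeast in leucine-free medium carrying a pooled library of tiled 17-residue yeast protein peptides fused downstream of GFP on a Cherry-expressing plasmid.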
sequence,measurement,setting,value
LGKVRFANYKLLLKKII [SRB4],protein stability index,doa10∆,1.71 ± 0.063
same,protein stability index,pdr5∆,1.62 ± 0.05
same,protein stability index,san1∆,1.43 ± 0.14
same,protein stability index,ubr1∆,1.53 ± 0.044
VSTETFEQPSQREEAKK [RPL27A],protein stability index,doa10∆,2.9 ± 0.061
same,protein stability index,pdr5∆,2.73 ± 0.07
same,protein stability index,san1∆,2.73 ± 0.054
same,protein stability index,ubr1∆,3.1 ± 0.067
LRDHALSLTAFTKNEEK [ITC1],protein stability index,doa10∆,1.42 ± 0.042
same,protein stability index,pdr5∆,1.76 ± 0.047
same,protein stability index,san1∆,1.38 ± 0.076
same,protein stability index,ubr1∆,1.86 ± 0.046
HPFGHALVAGIERYPSK [RPL27B],protein stability index,doa10∆,2.43 ± 0.14
same,protein stability index,pdr5∆,2.67 ± 0.1
same,protein stability index,san1∆,2.24 ± 0.16
same,protein stability index,ubr1∆,2.46 ± 0.17
IIQPFLDNSKMDYHFIF [RGR1],protein stability index,doa10∆,2.99 ± 0.13
same,protein stability index,pdr5∆,2.06 ± 0.082
same,protein stability index,san1∆,2.22 ± 0.049
same,protein stability index,ubr1∆,2.31 ± 0.11
HVINVGKTWEKLVLAAR [RPS0A],protein stability index,doa10∆,3.41 ± 0.15
same,protein stability index,pdr5∆,3.49 ± 0.21
same,protein stability index,san1∆,3.39 ± 0.13
same,protein stability index,ubr1∆,3.12 ± 0.098
NISIITLELESFLEGSK [RGR1],protein stability index,doa10∆,2.44 ± 0.054
same,protein stability index,pdr5∆,2.48 ± 0.059
same,protein stability index,san1∆,2.75 ± 0.059
same,protein stability index,ubr1∆,2.94 ± 0.071
HLERNRKDKDAKFRLIL [RPS13],protein stability index,doa10∆,3.22 ± 0.12
same,protein stability index,pdr5∆,3.06 ± 0.13
same,protein stability index,san1∆,3.38 ± 0.24
same,protein stability index,ubr1∆,3.52 ± 0.2
EKQIEELLDNCIETFVA [SRB6],protein stability index,doa10∆,2.62 ± 0.13
same,protein stability index,san1∆,3.19 ± 0.16
same,protein stability index,ubr1∆,3.32 ± 0.12
EHLDCMNFISKEEFIMM [PCI8],protein stability index,ubr1∆,3.17 ± 0.16
ITLRGVENIERVVMMKY [RPO21],protein stability index,doa10∆,2.22 ± 0.12
same,protein stability index,pdr5∆,2.28 ± 0.096
same,protein stability index,san1∆,1.23 ± 0.16
same,protein stability index,ubr1∆,2.19 ± 0.076
KDTIVKEAEDKTLVALE [RPC37],protein stability index,doa10∆,3.4 ± 0.11
same,protein stability index,pdr5∆,3.11 ± 0.093
same,protein stability index,san1∆,3.33 ± 0.19
same,protein stability index,ubr1∆,3.18 ± 0.097
TIYNNIREGQNQKIPDN [SIR3],protein stability index,doa10∆,2.96 ± 0.05
same,protein stability index,pdr5∆,3.18 ± 0.064
same,protein stability index,san1∆,2.98 ± 0.056
same,protein stability index,ubr1∆,3.02 ± 0.045
VTSADSNLKISLVKYPE [SWI1],protein stability index,doa10∆,2.61 ± 0.067
same,protein stability index,pdr5∆,2.72 ± 0.073
same,protein stability index,san1∆,2.52 ± 0.085
same,protein stability index,ubr1∆,2.75 ± 0.05
QDVLQMLGRAGRPRYDT [BRR2],protein stability index,doa10∆,3.41 ± 0.21
same,protein stability index,pdr5∆,2.56 ± 0.23
same,protein stability index,san1∆,3.43 ± 0.14
same,protein stability index,ubr1∆,2.81 ± 0.28
EYLKRVSVPVSGQKTNR [SIR3],protein stability index,doa10∆,2.54 ± 0.1
same,protein stability index,pdr5∆,2.52 ± 0.087
same,protein stability index,san1∆,3.06 ± 0.13
same,protein stability index,ubr1∆,2.83 ± 0.16
RTKTPGPGGQAALRALA [RPS14B],protein stability index,doa10∆,2.39 ± 0.077
same,protein stability index,pdr5∆,2.55 ± 0.11
same,protein stability index,san1∆,2.23 ± 0.1
same,protein stability index,ubr1∆,2.46 ± 0.08
WNLLRSLYIFFTTLLES [YML103C/NUP188],protein stability index,doa10∆,2.08 ± 0.058
same,protein stability index,pdr5∆,1.58 ± 0.044
same,protein stability index,san1∆,1.69 ± 0.06
same,protein stability index,ubr1∆,1.43 ± 0.028
LISGKAGVLNGTLEYGT [RET1],protein stability index,doa10∆,2.83 ± 0.056
same,protein stability index,pdr5∆,3.03 ± 0.062
same,protein stability index,san1∆,3.02 ± 0.063
same,protein stability index,ubr1∆,2.99 ± 0.059
KTAIEGSYIDKKCPFTG [RPS11A],protein stability index,doa10∆,3.12 ± 0.069
same,protein stability index,pdr5∆,3.37 ± 0.075
same,protein stability index,san1∆,3.08 ± 0.051
same,protein stability index,ubr1∆,3.27 ± 0.036
PKYAKQKDKSDTYKRFK [ISW2],protein stability index,doa10∆,3.12 ± 0.084
same,protein stability index,pdr5∆,3.1 ± 0.1
same,protein stability index,san1∆,3.13 ± 0.11
same,protein stability index,ubr1∆,3.23 ± 0.079
ARGTIEIVSDVKVVDAG [RPP0],protein stability index,doa10∆,1.61 ± 0.1
same,protein stability index,pdr5∆,2.21 ± 0.07
same,protein stability index,san1∆,1.96 ± 0.15
same,protein stability index,ubr1∆,1.77 ± 0.095
RGRGRGRGRGRGRPPKA [SNF2],protein stability index,doa10∆,3.22 ± 0.075
same,protein stability index,pdr5∆,3.2 ± 0.066
same,protein stability index,san1∆,3.37 ± 0.041
same,protein stability index,ubr1∆,3.27 ± 0.06
AEVNGGDDEATEIISTL [BRR2],protein stability index,doa10∆,3.33 ± 0.094
same,protein stability index,pdr5∆,3.1 ± 0.13
same,protein stability index,san1∆,3.43 ± 0.095
same,protein stability index,ubr1∆,3.11 ± 0.21
YFKLDLTSDLVYFGDEN [RRI2],protein stability index,doa10∆,2.09 ± 0.15
same,protein stability index,pdr5∆,2.47 ± 0.3
same,protein stability index,ubr1∆,1.48 ± 0.08
FLPFNNSASNNGNLTSN [SWI1],protein stability index,doa10∆,2.94 ± 0.093
same,protein stability index,pdr5∆,3.02 ± 0.094
same,protein stability index,san1∆,3.07 ± 0.058
same,protein stability index,ubr1∆,2.9 ± 0.099
ALVAGIERYPLKVTKKH [RPL27A],protein stability index,doa10∆,2.17 ± 0.27
same,protein stability index,pdr5∆,2.51 ± 0.12
same,protein stability index,san1∆,1.87 ± 0.24
